The text below walks through data of article PMC9188544, “Mechanism of glycogen synthase inactivation and interaction with glycogenin” (Nature Communications, 2022).

For data set [1], the target named is T1, human glycogenin 1 (GN1), full length, wild type, glucosylated (human, UniProt P46976-2 1-333, auto-glucosylated at tyrosine 195 (heterogeneous glucose chains; smear on SDS-PAGE, PAS positive)).
T1 construct: glycogenin 1, human, encoded by GYG1, cDNA NM 001184720, full length; expected ~37.5 kDa; the C-terminal GN34 region is modelled as residues 300-332, which fits the 333-residue isoform; The isoform is inferred from the printed transcript id, the ~37.5 kDa size and the GN34 numbering; also called GN WT; HsGN; not shown: His6, N-terminal, cleaved
T1 sequence (looked up): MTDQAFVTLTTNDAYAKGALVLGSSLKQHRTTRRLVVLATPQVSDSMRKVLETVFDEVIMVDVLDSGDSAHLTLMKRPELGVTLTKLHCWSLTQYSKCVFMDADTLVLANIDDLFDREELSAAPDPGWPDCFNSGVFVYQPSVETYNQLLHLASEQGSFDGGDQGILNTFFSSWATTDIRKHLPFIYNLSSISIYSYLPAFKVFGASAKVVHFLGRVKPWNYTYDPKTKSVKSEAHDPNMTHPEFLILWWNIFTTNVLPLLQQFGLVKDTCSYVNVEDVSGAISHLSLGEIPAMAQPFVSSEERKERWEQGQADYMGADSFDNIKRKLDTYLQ
The data set is described as follows: negative-stain electron microscopy; purified co-expressed complex at 0.01-0.02 mg/mL in 25 mM HEPES pH 7.5, 150 mM NaCl, 1 mM TCEP, 10% glycerol; uranyl acetate stain; 2D classes and 3D map (C1, ~22 Å). The following applies: both partners purified.

Data set [2] concerns the molecule itself. The data set is described as follows: cryo-EM structure; purified GS-GN (WT) complex at 0.36 mg/mL (2.97 μM), 8% glycerol; map at 6.0 Å.
Data set [3] has as its target T2, human glycogenin 1 (GN1) Y195F, full length, non-glucosylated (human, UniProt P46976-2 1-333, Y195F).
T2 construct: glycogenin 1, human, encoded by GYG1, cDNA NM 001184720, full length; expected ~37.5 kDa; the C-terminal GN34 region is modelled as residues 300-332, which fits the 333-residue isoform; Cloned in pFL (with untagged GS) and in pFastBac (co-infected with His6-TEV-GS WT or mutants); Both carry an N-terminal His6 tag and a cleavable site, so they are treated as one molecule; also called GN(Y195F); GN …
T2 sequence (looked up): T1 sequence (looked up) with Y195F
The data set is described as follows: mass photometry; purified co-expressed complex diluted to 50 nM in 25 mM HEPES pH 7.5, 150 mM NaCl, 1 mM TCEP; Refyn OneMP, 60 s movies. The following applies: both partners purified.

Data set [4] concerns the molecule itself. The data set is described as above.
The target of data set [5] is T3, human glycogenin 1 (GN1), full length, wild type, glucosylated (human), P46976.
T3 chain: T1 sequence (looked up)
As to the kind of experiment: negative-stain electron microscopy; purified co-expressed complex at 0.01-0.02 mg/mL in 25 mM HEPES pH 7.5, 150 mM NaCl, 1 mM TCEP, 10% glycerol; uranyl acetate stain; 2D classes and 3D map (C1, ~22 Å). The following applies: remark: other sources report otherwise.

Substitutions are numbered along the chain they refer to. Names and notes keep the numbering of the source.

B1: human glycogen synthase 1 (GS1), full length, phosphorylated, co-expressed with GN1 from the pFL vector (enzyme, UniProt P13807 1-737, looked up)
chain: MPLNRTLSMSSLPGLEDWEDEFDLENAVLFEVAWEVANKVGGIYTVLQTKAKVTGDEWGDNYFLVGPYTEQGVRTQVELLEAPTPALKRTLDSMNSKGCKVYFGRWLIEGGPLVVLLDVGASAWALERWKGELWDTCNIGVPWYDREANDAVLFGFLTTWFLGEFLAQSEEKPHVVAHFHEWLAGVGLCLCRARRLPVATIFTTHATLLGRYLCAGAVDFYNNLENFNVDKEAGERQIYHRYCMERAAAHCAHVFTTVSQITAIEAQHLLKRKPDIVTPNGLNVKKFSAMHEFQNLHAQSKARIQEFVRGHFYGHLDFNLDKTLYFFIAGRYEFSNKGADVFLEALARLNYLLRVNGSEQTVVAFFIMPARTNNFNVETLKGQAVRKQLWDTANTVKEKFGRKLYESLLVGSLPDMNKMLDKEDFTMMKRAIFATQRQSFPPVCTHNMLDDSSDPILTTIRRIGLFNSSADRVKVIFHPEFLSSTSPLLPVDYEEFVRGCHLGVFPSYYEPWGYTPAECTVMGIPSISTNLSGFGCFMEEHIADPSAYGIYILDRRFRSLDDSCSQLTSFLYSFCQQSRRQRIIQRNRTERLSDLLDWKYLGRYYMSARHMALSKAFPEHFTYEPNEADAAQGYRYPRPASVPPSPSLSRHSSPHQSEDEEDPRNGPLEEDGERYDEDEEAAKDRRNIRAPEWPRRASCTSSTSGSKRNSVDTATSSSLSTPSEPLSPTSSLGEERN
modifications: phosphoserine mapped by MS/MS at S8, S412, S641, S645, S652, S653, S657, S727, S731; phospho-S641 modelled in the cryo-EM map
notes: glycogen synthase 1 (muscle), human, encoded by GYS1, cDNA NM 002103, full length; In the pFL construct only GN carries the His tag; also called HsGS; GS WT
As for B1, the “stoichiometry N” value in data set [1] was 1 GS per GN (4:4); in data set [2] it was 4; in data set [3], 1 GS per GN (4:4).

B2: human glycogen synthase 1 (GS1) W18A (enzyme, UniProt P13807 1-737, looked up)
chain: B1 chain with W18A
modifications: phosphorylation at S8, S641 and S641/S645 probed by immunoblot (Fig. 4b)
notes: glycogen synthase 1 (muscle), human, encoded by GYS1, cDNA NM 002103; also called GS W18A; not shown: His6, N-terminal, cleaved
Take B2: the binding result in data set [4] was “binds”.

B3: human glycogen synthase 1 (GS1) R603A (enzyme, UniProt P13807 1-737, looked up)
chain: B1 chain with R603A
modifications: phosphorylation at S8, S641 and S641/S645 probed by immunoblot (Fig. 4b)
notes: glycogen synthase 1 (muscle), human, encoded by GYS1, cDNA NM 002103; also called GS R603A; not shown: His6, N-terminal, cleaved
Consider B3, for which the binding result in data set [4] is recorded as “binds”.

B4: human glycogen synthase 1 (GS1) H610E (enzyme, UniProt P13807 1-737, looked up)
chain: B1 chain with H610E
modifications: phosphorylation at S8, S641 and S641/S645 probed by immunoblot (Fig. 4b)
notes: glycogen synthase 1 (muscle), human, encoded by GYS1, cDNA NM 002103; also called GS H610E; not shown: His6, N-terminal, cleaved
As for B4, the binding result in data set [4] was “binds”.

B5: human glycogen synthase 1 (GS1) Y600A (enzyme, UniProt P13807 1-737, looked up)
chain: B1 chain with Y600A
modifications: phosphorylation at S8, S641 and S641/S645 probed by immunoblot (Fig. 4b)
notes: glycogen synthase 1 (muscle), human, encoded by GYS1, cDNA NM 002103; also called GS Y600A; not shown: His6, N-terminal, cleaved
Regarding B5, the binding result in data set [4] is recorded as “binds”.

B6: human glycogenin 1 (GN1), full length, wild type, glucosylated, P46976-2 1-333 (enzyme)
chain: T1 sequence (looked up)
modifications: here or on the partner: auto-glucosylated at tyrosine 195 (heterogeneous glucose chains; smear on SDS-PAGE, PAS positive); auto-glucosylated at tyrosine 195 (heterogeneous glucose chains; smear on SDS-PAGE, PAS positive)
In turn, B6 displayed a stoichiometry N in data set [5] of 2.
